By Kd is commonly meant the constant that tells how readily two partners part at equilibrium. The term EC50 denotes the concentration at which the effect is half-maximal. High values mean lower potency in that assay, low ones higher potency in that assay.

Data on ten molecules can be found in US20260176336A1 (MESTAG THERAPEUTICS, published 2026).

For assay [1], the target named is mouse LTBR on cells (4T1 tumor cell line; primary mouse lung fibroblasts) (mouse, UniProt P50284 31-415). Briefly: cell-based or functional assay.
Sequence of mouse LTBR on cells (4T1 tumor cell line; primary mouse lung fibroblasts) (P50284 31-415): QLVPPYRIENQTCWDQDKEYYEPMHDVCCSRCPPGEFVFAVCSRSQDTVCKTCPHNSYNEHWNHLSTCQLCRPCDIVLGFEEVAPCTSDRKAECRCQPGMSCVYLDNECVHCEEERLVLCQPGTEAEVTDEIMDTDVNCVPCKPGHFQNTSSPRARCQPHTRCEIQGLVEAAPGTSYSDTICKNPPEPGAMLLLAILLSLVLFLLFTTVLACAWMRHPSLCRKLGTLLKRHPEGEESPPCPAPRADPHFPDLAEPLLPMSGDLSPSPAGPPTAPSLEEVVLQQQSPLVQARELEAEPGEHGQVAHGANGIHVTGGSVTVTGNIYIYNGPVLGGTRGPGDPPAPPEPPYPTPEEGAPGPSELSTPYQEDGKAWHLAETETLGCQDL
The target of assay [2] is T1, cyno LTBR His (R&D), recombinant protein (cynomolgus (Macaca fascicularis), UniProt P36941 31-227 (human entry), limits assumed).
T1 construct: bought protein used as analyte on Carterra LSA
T1 sequence (P36941 other isoform, or with tags, fused parts or gaps limits assumed): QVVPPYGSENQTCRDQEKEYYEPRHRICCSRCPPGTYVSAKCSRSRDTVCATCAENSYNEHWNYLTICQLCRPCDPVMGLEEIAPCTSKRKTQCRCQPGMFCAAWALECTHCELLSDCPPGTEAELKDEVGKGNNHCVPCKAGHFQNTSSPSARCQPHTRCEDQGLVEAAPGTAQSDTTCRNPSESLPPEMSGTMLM
In words: SPR (Carterra LSA), antibody captured by anti-human Fc, LTBR as analyte. The method, then: (§1) The binding of anti-LTBR antibodies to human and cynomolgus LTBR was investigated by Surface Plasmon Resonance (SPR) on Carterra LSA. An EC30M chip was used to capture the test antibodies. Activation with EDC and sNHS occurred in MES pH 5.5 to prepare the chip for amine coupling. Goat anti-human IgG Fc antibody was then captured to the chip via incubation for 10 minutes. Excess conjugation sites were quenched with 1M Ethanolamine pH 8. To measure monovalent binding kinetics, antibodies were printed/spotted onto the chip and allowed to bind to the goat antibody, followed by subsequent washing. After the preparation, the printed chip was exposed to repeated rounds of association and dissociation with increasing analyte concentrations. In this work, recombinant proteins (Human LTBR (Acro) or cyno LTBR His (R&D)) were serially diluted across a range starting at 1500 nM with 3-fold dilutions and 10 points. The curves were fitted to global fit in a 1:1 binding model to obtain KD values. The binding affinity to both species is reported.

Assay [3] deals with Human LTBR (Acro), recombinant protein (human, UniProt P36941 31-227, limits assumed). The description is as above. The method, then:
as §1

The target in assay [4] is T2, human LTBR endogenously expressed on cells (HepG2, A549, A375, HCC1187, RPMI-7951, primary human breast CAFs) (human, UniProt P36941 31-435). In words: cell-based or functional assay.
T2 sequence (P36941 31-435): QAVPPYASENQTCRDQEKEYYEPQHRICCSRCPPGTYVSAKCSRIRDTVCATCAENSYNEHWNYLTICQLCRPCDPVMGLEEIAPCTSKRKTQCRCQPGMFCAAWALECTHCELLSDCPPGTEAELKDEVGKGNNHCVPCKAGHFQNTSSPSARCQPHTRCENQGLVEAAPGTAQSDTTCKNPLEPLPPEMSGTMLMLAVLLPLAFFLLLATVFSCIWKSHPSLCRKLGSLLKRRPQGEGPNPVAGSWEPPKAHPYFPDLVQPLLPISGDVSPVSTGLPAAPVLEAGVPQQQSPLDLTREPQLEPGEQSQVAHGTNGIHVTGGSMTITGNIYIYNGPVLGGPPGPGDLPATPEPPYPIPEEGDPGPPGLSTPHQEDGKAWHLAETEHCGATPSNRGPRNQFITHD
Assay [5] addresses T2, human LTBR endogenously expressed on …. Briefly: flow cytometry, A375 cells. The method, then: For binding to LTBR-positive cells, the A375 tumor cell line was used. At the same time, binding to LTBR-negative HEK293 cells was tested to confirm specificity. In short, the cells were resuspended in the FACS binding buffer, and live/dead efluro450 viability dye was added at a 1:1000 dilution to the cell suspension, followed by incubation at room temperature in the dark for 30 minutes. The cells were then diluted to 2 e5/ml, and 100 ul was added to wells of a 96-well U-bottom plate as required. […] The cells were pelleted by centrifugation, and the supernatant was discarded, followed by the addition of a series of dilutions of anti-LTBR antibodies and incubation for 45 minutes at 4 C in the dark. Cells were washed two times with PBS with 3% (w/v) BSA before adding 60 ul of fluorescently labelled secondary antibody (goat anti-human IgG) diluted to 1:200 in PBS. Incubation continued at 4 C for at least 30 minutes, followed by two washes in PBS pH 7.4. Cells were either fixed with 2% PFA (30 minutes at 4 C) followed by washout and storage in 100 ul of PBS or immediately analysed on a Flow Cytometer. The data were analysed using FloJo V10 and GraphPad Prism. No binding to the HEK cell line was detected for any tested clones, confirming the specific interaction between anti-LTBR antibodies and LTBR receptor. The results are summarised in.

The target is the same in assay [6]. Briefly: cell-based or functional assay. This is another data set of the same source.
The target is the same in assay [7]. In words: cell-based or functional assay. This is another data set of the same source.

Sequence of Human LTBR (Acro), recombinant protein (P36941 31-227 limits assumed): as the sequence (P36941 other isoform, or with tags, fused parts or gaps limits assumed) above, with V2A, G7A, R24Q, S45I, D163N, R181K, S184L, S186P counted along it

B1: Clone 4.15 (antibody, V domains shown)
VH: QVQLKESGPGLVQPSQTLSLTCTVSGFSLTTYSVHWVRQHSGKSLEWMGRMWTDGDTSYNSAFTSRLSISRDTSKSQVFLKMNSLQTEDTGTYYCARGYWYFDFWGPGTMVTVSS
VL: DVQMTQSPSYLAASPGESVSIRCKASKSISNNLAWYQEKPGKANKLLIHSGSTLQSGTPSRFSGSGSGTDFTLTIRSLEFEDFAVYYCQQYNEYPYTFGAGTKLELK
Take B1: in assay [1], the “4T1 monoculture CCL5 read-out EC50” value stood at 0.84 nM and the “4T1 monoculture CCL5 read-out EC50, 4.15 + cross-linking antibody” value was determined as 0.036 nM.

B2: Clone 2.3 (antibody, V domains shown)
VH: EVQLVESGGGLVQPGGSLRLSCAASGFTFSSYAMSWVRQAPGKGLEWVSGISGSGGRTNYADSVKGRFTISRDNSKNTLYLQMNSLRAEDTAVYYCAKSDNWHYLDAFDIWGQGTMVTVSS
VL: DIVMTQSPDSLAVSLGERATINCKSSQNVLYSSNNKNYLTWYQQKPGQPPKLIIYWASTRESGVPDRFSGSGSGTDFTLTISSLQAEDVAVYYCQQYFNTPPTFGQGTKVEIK
notes: anti-LTBR mAb (bivalent)
B2: the Kd in assay [2] stood at 0.39 nM; in assay [3] it was 0.58 nM. In addition, the “HepG2 reporter assay EC50 (w/o cross-linking antibody)” value in assay [4] is 0.13 nM. Besides, the “HepG2 reporter assay EC50 (with cross-linking antibody)” value in assay [4] came out at 0.043 nM. In addition, the EC50 in assay [5] is 0.66 nM.

B3: Clone 2.5 (antibody, V domains shown)
VH: EVQLVESGGGLVQPGRSLRLSCAASGFTFDDYDIHWVRQAPGKGLEWVSGINWNSITIGYADSVKGRFTISRDNAKNSLYLQMNSLRAEDTALYYCAKDRGSGWRIFDYWGQGTLVTVSS
VL: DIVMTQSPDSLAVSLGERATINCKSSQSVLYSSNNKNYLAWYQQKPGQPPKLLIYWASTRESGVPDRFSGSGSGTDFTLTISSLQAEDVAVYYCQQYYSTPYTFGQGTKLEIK
notes: anti-LTBR mAb (bivalent)
With B3, in assay [2], the Kd came out at 1.6 nM. Also, the Kd in assay [3] was determined as 2.1 nM. In assay [4], the “HepG2 reporter assay EC50 (w/o cross-linking antibody)” value was found to be 0.24 nM and the “HepG2 reporter assay EC50 (with cross-linking antibody)” value worked out at 0.14 nM. The EC50 in assay [5] stood at 5.4 nM.

B4: Clone 2.2 (antibody, V domains shown)
VH: EVQLVESGGGLVKPGGSLRLSCAASRFTFSSYSMNWVRQAPGKGLEWVSSISPSSSYIYYADSVKGRFTISRDNAKNSLYLQMNSLRAEDTAVYYCARDHYNWNFDALDIWGQGTMVTVSS
VL: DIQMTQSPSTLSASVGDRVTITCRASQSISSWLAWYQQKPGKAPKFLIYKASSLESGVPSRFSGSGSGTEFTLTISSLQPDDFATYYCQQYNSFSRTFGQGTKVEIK
notes: anti-LTBR mAb (bivalent)
Take B4: the Kd in assay [2] stood at 0.71 nM. In addition, the Kd in assay [3] is 0.56 nM. Also, in assay [4], the “HepG2 reporter assay EC50 (w/o cross-linking antibody)” value stood at 17 nM and the “HepG2 reporter assay EC50 (with cross-linking antibody)” value was found to be 0.19 nM. The EC50 in assay [5] was found to be 0.72 nM.

B5: Clone 2.4 (antibody, V domains shown)
VH: QVQLVESGGGVVQPGRSLRLSCAASGFTFSSYGIHWVRQAPGKGLEWVAVIWYDGSNKYYADSVKGRFTISRDNSKNTLYLQMNSLRAEDTAVYYCARDGGTGNYYYMDVWGKGTTVTVSS
VL: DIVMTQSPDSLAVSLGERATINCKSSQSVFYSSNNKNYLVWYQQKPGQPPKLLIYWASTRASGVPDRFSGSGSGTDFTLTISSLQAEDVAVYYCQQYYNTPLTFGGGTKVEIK
notes: anti-LTBR mAb (bivalent)
Regarding B5, the results for the Kd in assay [2] and in assay [3] were 53 nM and 36 nM, respectively. In assay [4], the “HepG2 reporter assay EC50 (with cross-linking antibody)” value amounted to 0.09 nM.

B6: Clone 2.1 (antibody, V domains shown)
VH: EVQLVESGGGLVKPGGSLRLSCAASGFTFSSYCMNWVRQAPGKGLEWVSSISTGNTYIYYSDSVKGRFTISRDNAKNSLYLQMNSLRAEDTAVYYCARARYNWNYDAFDIWGQGTMVTVSS
VL: DIQMTQSPSSLSASIGDRVTITCQASQDISNFLSWYQQKPGKAPNLLIFDASNLETGVPSRFSESGSGTDFSFTITSLQPEDIATYYCQQYYNVPLTFGGGTKVEIK
notes: anti-LTBR mAb (bivalent)
Turning to B6, the Kd in assay [2] turned out to be 0.26 nM; in assay [3], 0.25 nM. Besides, the “HepG2 reporter assay EC50 (with cross-linking antibody)” value in assay [4] stood at 0.16 nM. Further, in assay [5], the EC50 was determined as 1 nM.

B7: Clone 4.10 (bispecific antibody, human IgG1, kappa, L234A L235A)
heavy 1: not shown
heavy 2: EVQLVESGGGLVKPGGSLRLSCVASGFTFSLAWMNWVRQAPGKGLEWVGHIKSRADGGSTDYAAPVKGRFTISRDDSKNTLYLHMNSLKTEDTAVYFCSRFYWNYVLDYWGQGTLVTVSSASTKGPSVFPLAPSSKSTSGGTAALGCLVKDYFPEPVTVSWNSGALTSGVHTFPAVLQSSGLYSLSSVVTVPSSSLGTQTYICNVNHKPSNTKVDKKVEPKSCDKTHTCPPCPAPEAAGGPSVFLFPPKPKDTLMISRTPEVTCVVVDVSHEDPEVKFNWYVDGVEVHNAKTKPREEQYNSTYRVVSVLTVLHQDWLNGKEYKCKVSNKALPAPIEKTISKAKGQPREPQVCTLPPSRDELTKNQVSLSCAVKGFYPSDIAVEWESNGQPENNYKTTPPVLDSDGSFFLVSKLTVDKSRWQQGNVFSCSVMHEALHNHYTQKSLSLSPGK
light: DIQMTQSPSSLSASVGDRVTITCRASQSINSYFNWYQQKPGKAPKLLIYAASGLQSGVPSRFSGSGSGTDFTLTISSLQPEDFATYYCQQSYSPPYTFGQGTNLEIKRTVAAPSVFIFPPSDEQLKSGTASVVCLLNNFYPREAKVQWKVDNALQSGNSQESVTEQDSKDSTYSLSSTLTLSKADYEKHKVYACEVTHQGLSSPVTKSFNRGEC
Take B7: the “CCL19 upregulation, HCC1187:CAF Co-culture EC50” value in assay [6] was 0.41 nM. In addition, in assay [7], the “HepG2 Reporter assay, HepG2:FAP-CHO-K1 Co-culture EC50” value stood at 0.036 nM.

B8: Clone 2.8 (antibody, V domains shown)
VH: QVQLQESGPGLVKPSGTLSLTCAVSGGSISSSNWWSWVRQPPGKGLEWIGDIYHDGTTYYNPSLKSRVTVSVDKSKNQFSLKLSSVTAADTAVYYCARSPSGTTDYFDYWGQGTLVTVSS
VL: DIQMTQSPSSLSASVGDRVNITCRASQSISSYLNWYQQKPGKAPKLLIYAPSSLQSGVPSRFSGGGSGTDFTLTISSLQPEDFATYFCQQSYSTPPTFGPGTKVDIK
notes: anti-LTBR mAb (bivalent)
On to B8, for which the figures for the Kd in assay [2] and in assay [3] were 2.6 nM and 0.28 nM, respectively.

B9: Clone 2.7 (antibody, V domains shown)
VH: EVQLVESGGGLVQPGGSLRLSCAASGFIFDDYDMHWVRQAPGKGLEWVSGINWNSNRVDYADSVKGRFTISRDNARNSLYLQMNSLRPEDTAFYYCVKDKTSSWYVFDSWGQGTPVTVSS
VL: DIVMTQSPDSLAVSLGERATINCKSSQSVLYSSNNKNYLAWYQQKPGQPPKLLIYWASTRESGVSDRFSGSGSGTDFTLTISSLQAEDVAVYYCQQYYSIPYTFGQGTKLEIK
notes: anti-LTBR mAb (bivalent)
For B9, in assay [2], the Kd was 1.3 nM. For the same molecule, in assay [3], the Kd amounted to 4.3 nM. For the same molecule, in assay [4], the “HepG2 reporter assay EC50 (w/o cross-linking antibody)” value turned out to be 0.17 nM and the “HepG2 reporter assay EC50 (with cross-linking antibody)” value came out at 0.18 nM. Besides, the response in assay [5] was half-maximal at 9.5 nM (EC50).

B10: Clone 2.6 (antibody, V domains shown)
VH: QVQLVQSGTEMKKPGASVKVSCKASGYTFSSYDISWVRQAPGQGLEWMGWFSAYNGNSNYAQKFQGRVTMTTDTSTNTAYMELRSLRSDDTAVYYCAREGYYGNSGFFDYWGQGTLVTVSS
VL: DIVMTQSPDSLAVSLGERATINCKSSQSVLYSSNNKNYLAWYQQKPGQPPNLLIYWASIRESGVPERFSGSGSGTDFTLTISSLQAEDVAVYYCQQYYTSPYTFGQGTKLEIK
notes: anti-LTBR mAb (bivalent)
Turning to B10, the Kd in assay [2] came out at 0.024 nM. For the same molecule, the Kd in assay [3] was found to be 0.18 nM. Moreover, in assay [4], the “HepG2 reporter assay EC50 (w/o cross-linking antibody)” value came out at 0.073 nM and the “HepG2 reporter assay EC50 (with cross-linking antibody)” value is 0.1 nM. Besides, the EC50 in assay [5] came to 3.5 nM.
